According to the supplement of paper PMC12783771:
± gives the standard deviation of the averaged measurements.

B1: library; a variant is named by its letters at X, in order (parent)
chain: MNIQIGELAKRTACPVVTIRFYEQEGLLPPPGRSRGNFRLYGEEHVERLQFIRHCRSLDMPLSDVRTLLSYRKRPDQDCGEVXMLLDEHIRQVESRIGALLELKHHLVELREACSGARPAQSCGILQXLSXCVCXTRGTTAHXSD

Key:
[1] = variants of: B1; test: sfGFP reporter fluorescence (15 h) (µM FITC); higher = higher leak; details: library round: Round 2; ligand: none
Method: (§1)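 Cell-free biosensing: 1 µL Echo-assembled CFE reactions with linear PbrR variant templates (5 nM) and pPbrR-sfGFP reporter, with 1 µM Pb, 30 µM Zn or no ligand; endpoint sfGFP fluorescence after 15 h at 30 °C calibrated as µM FITC. Round 2 ML-predicted PbrR mutants; up to 3 biological replicates.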

[2] = variants of: B1; test: sfGFP reporter fluorescence (15 h) (µM FITC); higher = stronger transcriptional activation; details: library round: Round 2
Method: as §1

## NGYAP K104R
[1]
  sfGFP reporter fluorescence: 0.0664 ± 0.0054
[2]; ligand: 1 µM Pb
  sfGFP reporter fluorescence: 0.0679 ± 0.0057
[2]; ligand: 30 µM Zn
  sfGFP reporter fluorescence: 0.698 ± 0.11

## TGSDP H142A
[1]
  sfGFP reporter fluorescence: 0.0642 ± 0.0043
[2]; ligand: 1 µM Pb
  sfGFP reporter fluorescence: 0.081 ± 0.0053
[2]; ligand: 30 µM Zn
  sfGFP reporter fluorescence: 0.451 ± 0.086

## NGTDP S115G V133P
[1]
  sfGFP reporter fluorescence: 0.0474 ± 0.0012
[2]; ligand: 1 µM Pb
  sfGFP reporter fluorescence: 0.0633 ± 0.00085
[2]; ligand: 30 µM Zn
  sfGFP reporter fluorescence: 0.461 ± 0.052

## SGSPP
[1]
  sfGFP reporter fluorescence: 0.0484 ± 0.0013
[2]; ligand: 1 µM Pb
  sfGFP reporter fluorescence: 0.123 ± 0.0072
[2]; ligand: 30 µM Zn
  sfGFP reporter fluorescence: 0.394 ± 0.023

## SGDDP I90L V108N
[1]
  sfGFP reporter fluorescence: 0.0447 ± 0.0012
[2]; ligand: 1 µM Pb
  sfGFP reporter fluorescence: 0.04614 ± 0.00039
[2]; ligand: 30 µM Zn
  sfGFP reporter fluorescence: 0.0897 ± 0.013

## TGSPP
[1]
  sfGFP reporter fluorescence: 0.0436 ± 0.0022
[2]; ligand: 1 µM Pb
  sfGFP reporter fluorescence: 0.125 ± 0.0052
[2]; ligand: 30 µM Zn
  sfGFP reporter fluorescence: 0.305 ± 0.0072

## TGDDP E109D E112K
[1]
  sfGFP reporter fluorescence: 0.0468 ± 0.0013
[2]; ligand: 1 µM Pb
  sfGFP reporter fluorescence: 0.0781 ± 0.0022
[2]; ligand: 30 µM Zn
  sfGFP reporter fluorescence: 0.418 ± 0.034

## TGDRW
[1]
  sfGFP reporter fluorescence: 0.0495 ± 0.00078
[2]; ligand: 1 µM Pb
  sfGFP reporter fluorescence: 0.0726 ± 0.0038
[2]; ligand: 30 µM Zn
  sfGFP reporter fluorescence: 0.205 ± 0.014

## NIAPP
[1]
  sfGFP reporter fluorescence: 0.139 ± 0.0095
[2]; ligand: 1 µM Pb
  sfGFP reporter fluorescence: 0.472 ± 0.03
[2]; ligand: 30 µM Zn
  sfGFP reporter fluorescence: 2.03 ± 0.16

## NHCDA
[1]
  sfGFP reporter fluorescence: 0.0569 ± 0.0056
[2]; ligand: 1 µM Pb
  sfGFP reporter fluorescence: 0.0749 ± 0.0034
[2]; ligand: 30 µM Zn
  sfGFP reporter fluorescence: 0.446 ± 0.063

## NGDPP G124S I125L
[1]
  sfGFP reporter fluorescence: 0.0484 ± 0.0015
[2]; ligand: 1 µM Pb
  sfGFP reporter fluorescence: 0.0455 ± 0.0014
[2]; ligand: 30 µM Zn
  sfGFP reporter fluorescence: 0.0506 ± 0.001

## NGDDP M60L D64S L107C
[1]
  sfGFP reporter fluorescence: 3.21 ± 0.37
[2]; ligand: 1 µM Pb
  sfGFP reporter fluorescence: 2.96 ± 0.13
[2]; ligand: 30 µM Zn
  sfGFP reporter fluorescence: 3.58 ± 0.77

## SGMAP
[1]
  sfGFP reporter fluorescence: 0.0668 ± 0.0035
[2]; ligand: 1 µM Pb
  sfGFP reporter fluorescence: 0.0819 ± 0.0034
[2]; ligand: 30 µM Zn
  sfGFP reporter fluorescence: 0.586 ± 0.076

## TGDDP K104R E112F
[1]
  sfGFP reporter fluorescence: 0.0494 ± 0.00089
[2]; ligand: 1 µM Pb
  sfGFP reporter fluorescence: 0.0553 ± 0.0034
[2]; ligand: 30 µM Zn
  sfGFP reporter fluorescence: 0.111 ± 0.0062

## TGDDP I97A K104G
[1]
  sfGFP reporter fluorescence: 0.0644 ± 0.0063
[2]; ligand: 1 µM Pb
  sfGFP reporter fluorescence: 0.155 ± 0.025
[2]; ligand: 30 µM Zn
  sfGFP reporter fluorescence: 0.412 ± 0.04

## NGSAA K104R
[1]
  sfGFP reporter fluorescence: 0.0641 ± 0.0074
[2]; ligand: 1 µM Pb
  sfGFP reporter fluorescence: 0.097 ± 0.0024
[2]; ligand: 30 µM Zn
  sfGFP reporter fluorescence: 1.05 ± 0.14

## NGTAT
[1]
  sfGFP reporter fluorescence: 0.0539 ± 0.0037
[2]; ligand: 1 µM Pb
  sfGFP reporter fluorescence: 0.0908 ± 0.0051
[2]; ligand: 30 µM Zn
  sfGFP reporter fluorescence: 0.937 ± 0.052

## NGDDP P61E D64K E112H
[1]
  sfGFP reporter fluorescence: 0.157 ± 0.027
[2]; ligand: 1 µM Pb
  sfGFP reporter fluorescence: 0.377 ± 0.021
[2]; ligand: 30 µM Zn
  sfGFP reporter fluorescence: 1.95 ± 0.22

## TGDRP L107C
[1]
  sfGFP reporter fluorescence: 0.176 ± 0.016
[2]; ligand: 1 µM Pb
  sfGFP reporter fluorescence: 1.17 ± 0.063
[2]; ligand: 30 µM Zn
  sfGFP reporter fluorescence: 2.94 ± 0.2

## TGDDP R111D E112H
[1]
  sfGFP reporter fluorescence: 0.0469 ± 0.002
[2]; ligand: 1 µM Pb
  sfGFP reporter fluorescence: 0.0446 ± 0.0019
[2]; ligand: 30 µM Zn
  sfGFP reporter fluorescence: 0.0529 ± 0.003

## TGSDY Q121A
[1]
  sfGFP reporter fluorescence: 0.0567 ± 0.0051
[2]; ligand: 1 µM Pb
  sfGFP reporter fluorescence: 0.0961 ± 0.0073
[2]; ligand: 30 µM Zn
  sfGFP reporter fluorescence: 0.443 ± 0.056

## TGDDP R96A K104V
[1]
  sfGFP reporter fluorescence: 0.052 ± 0.0012
[2]; ligand: 1 µM Pb
  sfGFP reporter fluorescence: 0.0513 ± 0.0043
[2]; ligand: 30 µM Zn
  sfGFP reporter fluorescence: 0.0712 ± 0.0018

## NIDAK M84A L107C
[1]
  sfGFP reporter fluorescence: 1.54 ± 0.14
[2]; ligand: 1 µM Pb
  sfGFP reporter fluorescence: 2.6 ± 0.14
[2]; ligand: 30 µM Zn
  sfGFP reporter fluorescence: 4.03 ± 0.52

## NGDRP D64T E88A
[1]
  sfGFP reporter fluorescence: 0.369 ± 0.048
[2]; ligand: 1 µM Pb
  sfGFP reporter fluorescence: 0.499 ± 0.14
[2]; ligand: 30 µM Zn
  sfGFP reporter fluorescence: 3.13 ± 0.29

## SGDDP I90L D145A
[1]
  sfGFP reporter fluorescence: 0.0442 ± 0.0022
[2]; ligand: 1 µM Pb
  sfGFP reporter fluorescence: 0.046 ± 0.001
[2]; ligand: 30 µM Zn
  sfGFP reporter fluorescence: 0.122 ± 0.0052

## NGSRP L126I
[1]
  sfGFP reporter fluorescence: 0.0416 ± 0.0022
[2]; ligand: 1 µM Pb
  sfGFP reporter fluorescence: 0.0457 ± 0.0021
[2]; ligand: 30 µM Zn
  sfGFP reporter fluorescence: 0.333 ± 0.0046

## NGYAP S95G
[1]
  sfGFP reporter fluorescence: 0.0664 ± 0.003
[2]; ligand: 1 µM Pb
  sfGFP reporter fluorescence: 0.0795 ± 0.0044
[2]; ligand: 30 µM Zn
  sfGFP reporter fluorescence: 1.03 ± 0.072

## TGDDY E112I
[1]
  sfGFP reporter fluorescence: 0.0493 ± 0.0015
[2]; ligand: 1 µM Pb
  sfGFP reporter fluorescence: 0.0522 ± 0.0014
[2]; ligand: 30 µM Zn
  sfGFP reporter fluorescence: 0.076 ± 0.0028

## NGSPA
[1]
  sfGFP reporter fluorescence: 0.0677 ± 0.013
[2]; ligand: 1 µM Pb
  sfGFP reporter fluorescence: 0.114 ± 0.019
[2]; ligand: 30 µM Zn
  sfGFP reporter fluorescence: 0.999 ± 0.13

## NGSPL
[1]
  sfGFP reporter fluorescence: 0.077 ± 0.0065
[2]; ligand: 1 µM Pb
  sfGFP reporter fluorescence: 0.141 ± 0.014
[2]; ligand: 30 µM Zn
  sfGFP reporter fluorescence: 1.2 ± 0.12

## NGDDW R74Q G138A
[1]
  sfGFP reporter fluorescence: 0.0503 ± 0.0034
[2]; ligand: 1 µM Pb
  sfGFP reporter fluorescence: 0.05902 ± 0.00051
[2]; ligand: 30 µM Zn
  sfGFP reporter fluorescence: 0.58 ± 0.017

## NHCDL E109L
[1]
  sfGFP reporter fluorescence: 0.0622 ± 0.0037
[2]; ligand: 1 µM Pb
  sfGFP reporter fluorescence: 0.0798 ± 0.0072
[2]; ligand: 30 µM Zn
  sfGFP reporter fluorescence: 0.512 ± 0.062

## NHDDA V108L
[1]
  sfGFP reporter fluorescence: 0.0477 ± 0.0017
[2]; ligand: 1 µM Pb
  sfGFP reporter fluorescence: 0.0671 ± 0.0043
[2]; ligand: 30 µM Zn
  sfGFP reporter fluorescence: 0.271 ± 0.03

## SGDVP K104V
[1]
  sfGFP reporter fluorescence: 0.067 ± 0.0056
[2]; ligand: 1 µM Pb
  sfGFP reporter fluorescence: 0.134 ± 0.0074
[2]; ligand: 30 µM Zn
  sfGFP reporter fluorescence: 1.3 ± 0.15

## SGDDW V108L
[1]
  sfGFP reporter fluorescence: 0.0515 ± 0.0023
[2]; ligand: 1 µM Pb
  sfGFP reporter fluorescence: 0.0672 ± 0.0033
[2]; ligand: 30 µM Zn
  sfGFP reporter fluorescence: 0.247 ± 0.031

## NGDDR T136A T140A
[1]
  sfGFP reporter fluorescence: 0.0505 ± 0.0017
[2]; ligand: 1 µM Pb
  sfGFP reporter fluorescence: 0.0665 ± 0.0039
[2]; ligand: 30 µM Zn
  sfGFP reporter fluorescence: 0.801 ± 0.079

## TGSAP V108L
[1]
  sfGFP reporter fluorescence: 0.0457 ± 0.0012
[2]; ligand: 1 µM Pb
  sfGFP reporter fluorescence: 0.102 ± 0.0018
[2]; ligand: 30 µM Zn
  sfGFP reporter fluorescence: 0.475 ± 0.012

## NGYPP V108I
[1]
  sfGFP reporter fluorescence: 0.0743 ± 0.0068
[2]; ligand: 1 µM Pb
  sfGFP reporter fluorescence: 0.149 ± 0.033
[2]; ligand: 30 µM Zn
  sfGFP reporter fluorescence: 1.1 ± 0.074

## NHDAW
[1]
  sfGFP reporter fluorescence: 0.0656 ± 0.0096
[2]; ligand: 1 µM Pb
  sfGFP reporter fluorescence: 0.117 ± 0.0091
[2]; ligand: 30 µM Zn
  sfGFP reporter fluorescence: 0.55 ± 0.081

## MGSDA
[1]
  sfGFP reporter fluorescence: 0.0442 ± 0.0017
[2]; ligand: 1 µM Pb
  sfGFP reporter fluorescence: 0.0841 ± 0.0012
[2]; ligand: 30 µM Zn
  sfGFP reporter fluorescence: 0.0513 ± 0.00078

## TGDPR E109L
[1]
  sfGFP reporter fluorescence: 0.063 ± 0.0052
[2]; ligand: 1 µM Pb
  sfGFP reporter fluorescence: 0.114 ± 0.0072
[2]; ligand: 30 µM Zn
  sfGFP reporter fluorescence: 0.346 ± 0.039

## NGDDP P61E L62I D64K
[1]
  sfGFP reporter fluorescence: 0.125 ± 0.015
[2]; ligand: 1 µM Pb
  sfGFP reporter fluorescence: 0.249 ± 0.094
[2]; ligand: 30 µM Zn
  sfGFP reporter fluorescence: 1.34 ± 0.17

## TGSDP V108L
[1]
  sfGFP reporter fluorescence: 0.0452 ± 0.0017
[2]; ligand: 1 µM Pb
  sfGFP reporter fluorescence: 0.0823 ± 0.0056
[2]; ligand: 30 µM Zn
  sfGFP reporter fluorescence: 0.229 ± 0.022

## NGLAP P61T
[1]
  sfGFP reporter fluorescence: 0.217 ± 0.015
[2]; ligand: 1 µM Pb
  sfGFP reporter fluorescence: 0.402 ± 0.021
[2]; ligand: 30 µM Zn
  sfGFP reporter fluorescence: 1.9 ± 0.27
